# Test results reported in PMC3636079, “Determinants at the N- and C-termini of Gα12 required for activation of Rho-mediated signaling” (Journal of Molecular Signaling, 2013).
# B1: myc-tagged Gα12 Gln^229Leu (myc-Gα12^QL) [not stated] / GST fusion of protein phosphatase-5 [not stated] (parent)
# chain 1: MSGVVRTLSRCLLPAEAGARERRAGAARDAEREARRRSRDIDALLARERRAVRRLVKILLLGAGESGKSTFLKQMRIIHGREFDQKALLEFRDTIFDNILKGSRVLVDARDKLGIPWQHSENEKHGMFLMAFENKAGLPVEPATFQLYVPALSALWRDSGIREAFSRRSEFQLGESVKYFLDNLDRIGQLNYFPSKQDILLARKATKGIVEHDFVIKKIPFKMVDVGGLRSQRQKWFQCFDGITSILFMVSSSEYDQVLMEDRRTNRLVESMNIFETIVNNKLFFNVSIILFLNKMDLLVEKVKSVSIKKHFPDFKGDPHRLEDVQRYLVQCFDRKRRNRSKPLFHHFTTAIDTENIRFVFHAVKDTILQENLKDIMLQ
# chain 2: MAMAEGERTECAEPPRDEPPADGALKRAEELKTQANDYFKAKDYENAIKFYSQAIELNPSNAIYYGNRSLAYLRTECYGYALGDATRAIELDKKYIKGYYRRAASNMALGKFRAALRDYETVVKVKPHDKDAKMKYQECNKIVKQKAFERAIAGDEHKRSVVDSLDIESMTIEDEYSGPKLEDGKVTISFMKELMQWYKDQKKLHRKCAYQILVQVKEVLSKLSTLVETTLKETEKITVCGDTHGQFYDLLNIFELNGLPSETNPYIFNGDFVDRGSFSVEVILTLFGFKLLYPDHFHLLRGNHETDNMNQIYGFEGEVKAKYTAQMYELFSEVFEWLPLAQCINGKVLIMHGGLFSEDGVTLDDIRKIERNRQPPDSGPMCDLLWSDPQPQNGRSISKRGVSCQFGPDVTKAFLEENNLDYIIRSHEVKAEGYEVAHGGRCVTVFSAPNYCDQMGNKASYIHLQGSDLRPQFHQFTAVPHPNVKPMAYANTLLQLGMM
# Variants of: B1
# Assay: GST pull-down (co-precipitation), immunoblot pulldown:load ratio
# Details: with GST fusion of protein phosphatase-5; grade: ++; mean of two or more trials; parent: 100
row,Variant,percent of parent (% of myc-Gα12QL pulldown:load ratio)
1,chain 1 I352N D353A T354A E355I N356R I357S,> 60
2,chain 1 V52N R53A R54A L55I V56R K57S,> 60
3,chain 1 K316N G317A D318A P319I H320R R321S,> 60
4,chain 1 R28N D29A E31I E33S,> 60
5,chain 1 H346N H347A F348A T349I T350R A351S,> 60
6,chain 1 R358N F359A V360A F361I H362R A363S,> 60
7,chain 1 R340N S341A K342A P343I L344R F345S,> 60
